This is an account of results in patent US20200317768A1 (published 2020).

One test deals with T1, GST-hMSTN 141-241aa (human, UniProt A1C2U3 141-241 (Pongo pygmaeus entry)).
T1 construct: As GST-hMSTN 1-100aa; also called eighth fragment; not shown: GST tag from the pGEX4.1 vector
T1 sequence: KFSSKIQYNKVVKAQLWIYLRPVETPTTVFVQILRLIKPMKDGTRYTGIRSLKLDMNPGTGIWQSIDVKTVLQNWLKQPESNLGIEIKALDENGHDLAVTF
Nature of the test: Western blot on GST tagged fragments. From the text: (§1) Fragments of the N-terminal propeptide coding region of human latent myostatin were cloned into a pGEX4.1 vector so as to produce GST tagged propeptide fragments of 100 amino acid each, with 80 amino acid overlap (FIG. 22A). Protein expression was induced in transformed BL21 competent cells with Overnight Express Autoinduction System (Merck Millipore) and protein was extracted using the BUGBUSTER® protein extraction reagent (Novagen).

Another test addresses T2, GST-hMSTN 121-220aa (human, UniProt A1C2U3 121-220 (Pongo pygmaeus entry)).
T2 construct: As GST-hMSTN 1-100aa; also called seventh fragment; not shown: GST tag from the pGEX4.1 vector
T2 sequence: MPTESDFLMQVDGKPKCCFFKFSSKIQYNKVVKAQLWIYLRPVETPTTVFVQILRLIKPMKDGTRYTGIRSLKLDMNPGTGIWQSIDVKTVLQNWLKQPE
Nature of the test: Western blot on GST tagged fragments.
Excerpt: as §1

For another test, the target named is T3, GST-hMSTN 101-200aa (human, UniProt A1C2U3 101-200 (Pongo pygmaeus entry)).
T3 construct: As GST-hMSTN 1-100aa; also called sixth fragment; not shown: GST tag from the pGEX4.1 vector
T3 sequence: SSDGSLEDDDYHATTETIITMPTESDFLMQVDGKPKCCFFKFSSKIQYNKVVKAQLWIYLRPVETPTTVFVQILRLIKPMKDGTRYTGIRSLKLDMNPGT
Nature of the test: Western blot on GST tagged fragments.
Excerpt: as §1
On the technique in general: A western blot detects proteins with antibodies after separation by electrophoresis.

Test [1] concerns the target T4, Human latent myostatin (human, UniProt O14793 25-266; O14793 267-375).
T4 construct: Biotinylated in the ELISAs; also called human myostatin latent form
T4 sequence 1: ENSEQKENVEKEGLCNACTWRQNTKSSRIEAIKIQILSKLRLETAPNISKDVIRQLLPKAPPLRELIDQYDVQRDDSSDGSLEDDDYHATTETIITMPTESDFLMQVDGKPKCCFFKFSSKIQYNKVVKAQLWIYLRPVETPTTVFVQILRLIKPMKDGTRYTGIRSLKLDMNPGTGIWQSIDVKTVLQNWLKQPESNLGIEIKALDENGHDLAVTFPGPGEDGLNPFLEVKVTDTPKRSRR
T4 sequence 2: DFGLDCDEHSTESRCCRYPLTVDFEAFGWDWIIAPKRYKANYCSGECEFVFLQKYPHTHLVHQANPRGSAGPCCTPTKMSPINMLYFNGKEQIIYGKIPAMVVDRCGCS
Nature of the test: SPR (BIACORE T200), 37 C, pH7.4, avidity condition (capture 185 RU), 1:1 fit; pH 7.4. As to the method:
(§2) The kinetic parameters of anti-latent myostatin antibodies against human, cynomolgus monkey (cyno), and mouse latent myostatin were assessed at 37° C. at pH7.4 using a BIACORE® T200 instrument (GE Healthcare). ProA/G (Pierce) was immobilized onto all flow cells of a CM4 chip using amine coupling kit (GE Healthcare). Anti-latent myostatin antibody and analytes were prepared in ACES pH7.4 (20 mM ACES, 150 mM NaCl, 1.2 mM CaCl₂), 0.05% TWEEN® 20, 0.005% NaN₃). […] Then human, cyno, or mouse latent myostatin was injected at 3.125 to 50 nM prepared by two-fold serial dilution, followed by dissociation. The sensor surface was regenerated with 25 mM NaOH. Kinetic parameters were determined by processing and fitting the data to a 1:1 binding model using BIACORE® T200 Evaluation software, version 2.0 (GE Healthcare).
(§3) All experimental settings were the same as in Example 7, except that measurements were also performed in ACES pH5.8 buffer in addition to ACES pH7.4 condition. Some antibodies were only measured against human latent myostatin. Antibody capture level was aimed at 185 RU and 18.5 RU, for avidity and affinity assay, respectively. Kinetic parameters were determined using 1:1 Binding fitting using BIACORE® T200 Evaluation software, version 2.0 (GE Healthcare).
On the technique in general: Surface plasmon resonance follows binding to a sensor surface in real time, without labels.

Test [2] addresses T5, Mouse latent myostatin (mouse, UniProt O08689 26-267; O08689 268-376).
T5 construct: signal 1-24
T5 sequence 1: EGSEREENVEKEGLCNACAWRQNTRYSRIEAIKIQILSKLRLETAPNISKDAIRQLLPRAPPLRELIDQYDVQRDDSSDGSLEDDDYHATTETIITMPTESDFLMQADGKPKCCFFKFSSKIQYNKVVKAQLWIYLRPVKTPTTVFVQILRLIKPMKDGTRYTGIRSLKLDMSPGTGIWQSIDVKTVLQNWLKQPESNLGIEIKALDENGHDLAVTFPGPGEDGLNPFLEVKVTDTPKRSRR
T5 sequence 2: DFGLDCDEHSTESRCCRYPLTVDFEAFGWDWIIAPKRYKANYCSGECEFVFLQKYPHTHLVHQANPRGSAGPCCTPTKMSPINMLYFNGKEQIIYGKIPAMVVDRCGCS
The test is described as above. As to the method:
as §2, §3

For test [3], the target named is T6, Cynomolgus monkey latent myostatin (cynomolgus monkey, UniProt Q95J86 25-266; Q95J86 267-375).
T6 construct: signal 1-24; also called Cyno latent myostatin
T6 sequence 1: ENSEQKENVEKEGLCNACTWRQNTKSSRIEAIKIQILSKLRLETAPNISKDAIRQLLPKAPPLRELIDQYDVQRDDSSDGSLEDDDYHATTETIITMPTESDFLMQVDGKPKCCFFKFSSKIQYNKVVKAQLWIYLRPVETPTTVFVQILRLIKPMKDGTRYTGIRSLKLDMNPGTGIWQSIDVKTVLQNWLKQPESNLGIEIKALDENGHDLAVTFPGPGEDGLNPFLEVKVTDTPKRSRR
T6 sequence 2: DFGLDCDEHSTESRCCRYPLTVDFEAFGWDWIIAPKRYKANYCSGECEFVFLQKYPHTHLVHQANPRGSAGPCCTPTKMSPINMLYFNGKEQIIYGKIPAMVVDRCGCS
The test is described as above. As to the method: as §2, §3

In test [4] the target is T4, Human latent myostatin. Nature of the test: SPR (BIACORE T200), 37 C, pH7.4, 1:1 fit; title prints avidity, by the text the affinity condition (capture 18.5 RU). As for the experimental part: as §2, §3
For test [5], the target named is T5, Mouse latent myostatin. The description is as above. As to the method: as §2, §3
The target in test [6] is T6, Cynomolgus monkey latent myostatin. Described as above. As to the method:
as §2, §3

Test [7] has as its target T4, Human latent myostatin. Nature of the test: SPR (BIACORE T200), 37 C, pH5.8, avidity condition (capture 185 RU), 1:1 fit; pH 5.8. As for the experimental part: as §2, §3
Test [8] has as its target T5, Mouse latent myostatin. The test is described as above. As to the method: as §2, §3
The target in test [9] is T6, Cynomolgus monkey latent myostatin. The description is as above. As to the method: as §2, §3
Test [10] has as its target T7, human FcγRIIb constitutively expressed on MDCK cells (human, UniProt P31994 43-310).
T7 sequence (looked up): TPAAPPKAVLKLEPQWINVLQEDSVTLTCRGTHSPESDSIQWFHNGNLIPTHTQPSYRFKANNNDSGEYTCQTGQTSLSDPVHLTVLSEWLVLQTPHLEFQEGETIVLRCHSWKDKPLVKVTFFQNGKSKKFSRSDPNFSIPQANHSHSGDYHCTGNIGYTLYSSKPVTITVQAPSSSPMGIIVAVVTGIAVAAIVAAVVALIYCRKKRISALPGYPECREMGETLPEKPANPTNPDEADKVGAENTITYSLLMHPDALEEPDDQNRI
Nature of the test: cell-based or functional assay.

B1: MST1032 (as tested in Example 26) (antibody, V domains shown)
VH: QSLEESGGRLVTPGGSLTVTCRVSGIDLSSYDISWVRQAPGKGLEWIGIISYAGSTYYASWAKGRFTISKTSTTVDLKMTSLTTEDTATYFCARGVPAYSTGGDLWGPGTLVTVSS
VL: AQVLTQTASSVSAAVGGTVTINCQSSQSVYDNNWLSWFQQKPGQPPKLLIYWASTLASGVPSRFKGSGSGTQFTLTISDLECDDAATYYCAGGYGGGLYAFGGGTKVEIK
In the case of B1, the binding result with GST-hMSTN 141-241aa, with GST-hMSTN 121-220aa and with GST-hMSTN 101-200aa was “no binding” each time.

B2: MS_M103205H714-SG1/M103202L861-SK1 (antibody, human IgG1, kappa, V domains shown)
VH: QVTLKESGPVLVKPTETLTLTCTVSGIDLSHTDISWVRQAPGKGLEWVGIISYAGSTYYASWAKGRLTISKDTSKNQVVLTMTNMDPVDTATYYCARGVPAYSHGGDLWGQGTLVTVSS
VL: DIVMTQSPATLSLSPGERATLSCTSSQSVYHNNWLSWFQQKPGQPPKLLIYWASTLAYGVPSRFSGSGSGTDFTLTISSLQPEDAATYYCAGGYGGGRYAFGQGTKVEIKR
notes: also called MS1032LO01-SG1; MSLO-01
A word on the koff: it is a measure of how fast the partners let go of each other. One may read the kon as a measure of how fast the partners come together. B2: the Kd was found to be 0.17 nM with Human latent myostatin [1]; 0.149 nM in the test with Mouse latent myostatin [2]; 0.165 nM in [3]; 0.788 nM with Human latent myostatin [4]; 0.713 nM with Mouse latent myostatin [5]; 0.954 nM in test [6]. Further, the Kd came to 19.9 nM with Human latent myostatin [7], 6.15 nM with Mouse latent myostatin [8] and 8.9 nM in test [9]. Moreover, the koff in the test with Human latent myostatin [1] was found to be 0.000216 s⁻¹; with Mouse latent myostatin [2], 0.000217 s⁻¹; in test [3], 0.000197 s⁻¹; in the test with Human latent myostatin [4] it was 0.00129 s⁻¹; in the test with Mouse latent myostatin [5], 0.00107 s⁻¹; in test [6], 0.0011 s⁻¹. For the same molecule, the koff with Human latent myostatin [7] worked out at 0.0242 s⁻¹; with Mouse latent myostatin [8] it was 0.00625 s⁻¹; in [9], 0.0068 s⁻¹. The kon with Human latent myostatin [1] amounted to 1.27e+06 M⁻¹ s⁻¹; in the test with Mouse latent myostatin [2], 1.45e+06 M⁻¹ s⁻¹; in test [3] it was 1.19e+06 M⁻¹ s⁻¹; in the test with Human latent myostatin [4], 1.64e+06 M⁻¹ s⁻¹; with Mouse latent myostatin [5] it was 1.5e+06 M⁻¹ s⁻¹; in test [6], 1.15e+06 M⁻¹ s⁻¹. The association rate constant (kon) was determined as 1.22e+06 M⁻¹ s⁻¹ with Human latent myostatin [7], 1.02e+06 M⁻¹ s⁻¹ with Mouse latent myostatin [8] and 764000 M⁻¹ s⁻¹ in test [9].

B3: MS103240H795-TT14/M103202L1045-SK1 (antibody, human IgG1, kappa)
heavy: QVQLVESGGGLVQPGGSLRLSCAVSGIDLSHDDISWVRQAPGKGLEWVSIISYAGSTYYASWAKGRLTISKDTSKNQVVLTMTNMDPVDTATYYCARGVPAYSHGGDLWGQGTLVTVSSASTKGPSVFPLAPSSKSTSGGTAALGCLVKDYFPEPVTVSWNSGALTSGVHTFPAVLQSSGLYSLSSVVTVPSSSLGTQTYICNVNHKPSNTKVDKKVEPKSCDKTHTCPPCPAPEYLGGDSVFLFPPKPKDVLMISRTPEVTCVVIDVSHEDPEVKFNWYVDGVEVHNAKTKPREEQYNSTYRVVSVLPVLHQDWLNGKEYKCKVSNKALPKPIEKTISKAKGQPREPQVYTLPPSREEMTKNQVSLTCLVKGFYPSDIAVEWESNGQPENNYKTTPPVLDSDGSFFLYSKLTVDKSRWQQGNVFSCSVMHEALHNHYTQKSLSLSP
light: DIVMTQSPATLSLSPGERATLSCTTSQSVYHENWLSWFQQKPGQPPKLLIYWASTLAYGVPSRFSGSGSGTDFTLTISSLQPEDAATYYCAGGYGGGRYAFGQGTKVEIKRTVAAPSVFIFPPSDEQLKSGTASVVCLLNNFYPREAKVQWKVDNALQSGNSQESVTEQDSKDSTYSLSSTLTLSKADYEKHKVYACEVTHQGLSSPVTKSFNRGEC
For B3, the “cell imaging: fluorescence intensity of labelled human latent myostatin taken up as antigen-antibody complex into MDCK cells expressing human FcγRIIb, relative to SG1” value in [10] is 7.5 fold.

B4: MS103240H795-TT33/M103202L1045-SK1 (antibody, human IgG1, kappa)
heavy: QVQLVESGGGLVQPGGSLRLSCAVSGIDLSHDDISWVRQAPGKGLEWVSIISYAGSTYYASWAKGRLTISKDTSKNQVVLTMTNMDPVDTATYYCARGVPAYSHGGDLWGQGTLVTVSSASTKGPSVFPLAPSSKSTSGGTAALGCLVKDYFPEPVTVSWNSGALTSGVHTFPAVLQSSGLYSLSSVVTVPSSSLGTQTYICNVNHKPSNTKVDKKVEPKSCDKTHTCPPCPAPEYLGGDSVFLFPPKPKDVLMISRTPEVTCVVIDVSHEDPEVKFNWYVDGVEVHNAKTKPREEQYNSTYRVVSVLPVLHRDWLNGKEYKCKVSNKALPKPIEKTISKAKGQPREPQVYTLPPSREEMTKNQVSLTCLVKGFYPSDIAVEWESNGQPENNYKTTPPVLDSDGSFFLYSKLTVKKSRWQQGNVFSCSVMHEALHNHYTQKSLSLSP
light: DIVMTQSPATLSLSPGERATLSCTTSQSVYHENWLSWFQQKPGQPPKLLIYWASTLAYGVPSRFSGSGSGTDFTLTISSLQPEDAATYYCAGGYGGGRYAFGQGTKVEIKRTVAAPSVFIFPPSDEQLKSGTASVVCLLNNFYPREAKVQWKVDNALQSGNSQESVTEQDSKDSTYSLSSTLTLSKADYEKHKVYACEVTHQGLSSPVTKSFNRGEC
For the molecule B4, in test [10], the “cell imaging: uptake of labelled antigen-antibody complex into MDCK cells expressing human FcγRIIb, relative to SG1” value came to 36 fold.
